Measurements taken from patent publication US20250206836A1.

Molecular target: C1q human protein (human) (UniProt P02745)
Test: ELISA, plates coated with the antibody, C1q human protein titrated (the concentration axis is that of C1q), Mean Absorbance (OD Units)

Sequence of C1q human protein (human) (P02745 23-245 limits assumed, chain 1 of 3): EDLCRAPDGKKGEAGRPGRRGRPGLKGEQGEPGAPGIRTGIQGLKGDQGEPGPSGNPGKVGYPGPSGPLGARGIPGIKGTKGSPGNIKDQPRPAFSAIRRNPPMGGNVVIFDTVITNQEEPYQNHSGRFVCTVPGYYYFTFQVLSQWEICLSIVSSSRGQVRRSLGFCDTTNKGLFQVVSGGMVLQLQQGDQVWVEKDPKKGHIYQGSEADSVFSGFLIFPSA
Sequence of C1q human protein (human) (P02746 28-253 limits assumed, chain 2 of 3, further chain): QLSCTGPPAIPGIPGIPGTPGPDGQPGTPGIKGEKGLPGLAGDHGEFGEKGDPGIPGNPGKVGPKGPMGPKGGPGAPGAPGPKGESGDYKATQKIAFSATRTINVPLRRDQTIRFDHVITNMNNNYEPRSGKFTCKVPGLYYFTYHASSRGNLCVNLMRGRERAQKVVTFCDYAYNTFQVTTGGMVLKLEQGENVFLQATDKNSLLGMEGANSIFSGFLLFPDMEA
Sequence of C1q human protein (human) (P02747 29-245 limits assumed, chain 3 of 3, further chain): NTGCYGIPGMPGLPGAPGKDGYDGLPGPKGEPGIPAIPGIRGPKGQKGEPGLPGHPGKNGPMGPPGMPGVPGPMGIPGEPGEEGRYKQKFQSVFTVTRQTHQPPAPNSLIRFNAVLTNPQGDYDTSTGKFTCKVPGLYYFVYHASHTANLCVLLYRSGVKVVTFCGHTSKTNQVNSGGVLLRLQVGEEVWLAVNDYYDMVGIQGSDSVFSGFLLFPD

EC50 (read off the curve): 20 µg/mL
Substance: Remicade (pos. control) (antibody)
